Article PMC5148612, “Mechanism of cargo-directed Atg8 conjugation during selective autophagy” (eLife, 2016)

B2: GST-prApe1(1–41) + Atg19 (complex, S. cerevisiae)
chain 1: MEEQREILEQLKKTLQMLTVEPSKNNQIANEEKEKKENENS
chain 2: MNNSKTNQQMNTSMGYPLTVYDECNKFQLIVPTLDANIMLWCIGQLSLLNDSNGCKHLFWQPNDKSNVRILLNNYDYGHLFKYLQCQRKCSVYIGEGTLKKYNLTISTSFDNFLDLTPSEEKESLCREDAHEDPVSPKAGSEEEISPNSTSNVVVSRECLDNFMKQLLKLEESLNKLELEQKVTNKEPNHRISGTIDIPEDRSELVNFFTELKTVKQLEDVFQRYHDYERLSQECDSKTEIASDHSKKETKIEVEPPNERSLQITMNQRDNSLYFQLFNNTNSVLAGNCKLKFTDAGDKPTTQIIDMGPHEIGIKEYKEYRYFPYALDLEAGSTIEIENQYGEVIFLGKYGSSPMINLRPPSRLSAESLQASQEPFYSFQIDTLPELDDSSIISTSISLSYDGDDNEKALTWEEL
notes: prApe1, S. cerevisiae, propeptide; Atg19, S. cerevisiae; formed beforehand on the beads; Atg19 as m17; also called cargo mimetic beads; source: purified proteins from E. coli, assembled on glutathione Sepharose beads and washed; not shown: GST, N-terminal, kept

Key:
Details in all cases: both partners purified
[1] = target: T1, Atg12~Atg5-Atg16-mCherry complex (S. cerevisiae, UniProt P38316 1-186; Q12380 1-294; Q03818 1-150, conjugated to Atg5 (Atg12~Atg5 protein conjugate) | conjugated to Atg12); assay: microscopy-based recruitment to cargo mimetic beads; beads with GST-prApe1(1–45) 25 µM, Atg19 15 µM, Atg12~Atg5-Atg16-mCherry 12.5 µM, washed after each step, with ATTO390-containing SUVs (Figure 6, Figure 6—figure supplement 2)
T1 construct: Atg12, S. cerevisiae; Atg5, S. cerevisiae; Atg16, S. cerevisiae; also called Cx; source: E. coli Rosetta pLysS; Atg12~Atg5 conjugate mixed 1:1 with purified Atg16-mCherry, purified by size exclusion chromatography; not shown: His6, N-terminal, cleaved; mCherry, C-terminal, kept; copies: + +
T1 sequence (looked up) 1: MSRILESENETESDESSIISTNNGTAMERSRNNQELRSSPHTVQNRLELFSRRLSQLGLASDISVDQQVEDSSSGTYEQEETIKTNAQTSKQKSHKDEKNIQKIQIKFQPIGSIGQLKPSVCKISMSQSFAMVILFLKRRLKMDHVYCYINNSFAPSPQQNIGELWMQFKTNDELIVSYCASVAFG
T1 sequence (looked up) 2: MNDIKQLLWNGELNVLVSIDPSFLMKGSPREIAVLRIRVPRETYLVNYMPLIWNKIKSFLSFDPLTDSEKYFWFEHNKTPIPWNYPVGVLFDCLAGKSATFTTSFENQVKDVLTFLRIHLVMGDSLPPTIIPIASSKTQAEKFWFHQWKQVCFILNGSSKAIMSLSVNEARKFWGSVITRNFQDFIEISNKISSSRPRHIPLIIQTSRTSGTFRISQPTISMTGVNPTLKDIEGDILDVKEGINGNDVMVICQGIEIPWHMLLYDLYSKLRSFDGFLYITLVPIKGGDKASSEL
T1 sequence (looked up) 3: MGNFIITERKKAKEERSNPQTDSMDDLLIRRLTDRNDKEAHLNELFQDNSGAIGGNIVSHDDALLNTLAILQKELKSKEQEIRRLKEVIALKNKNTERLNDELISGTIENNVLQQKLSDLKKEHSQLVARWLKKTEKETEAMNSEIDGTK

[2] = target: T2, Atg12~Atg5-Atg16-meGFP complex (S. cerevisiae, UniProt P38316 1-186; Q12380 1-294; Q03818 1-150, conjugated to Atg5 (Atg12~Atg5 protein conjugate) | conjugated to Atg12); assay: microscopy-based protein-protein interaction assay on beads; beads with GST-prApe1(1–45) at 5 µM, washed, Atg19 (wild type, mutant or mCherry-Atg19) 5 µM, washed, Atg12~Atg5-Atg16-meGFP 5 µM (Figure 3—figure supplement 2, Figure 6—figure supplement 1)
T2 construct: Atg12, S. cerevisiae; Atg5, S. cerevisiae; Atg16, S. cerevisiae; called -eGFP in one legend and -meGFP in the methods; also called Atg12~Atg5-Atg16-eGFP; source: E. coli Rosetta pLysS, purified; not shown: meGFP, C-terminal, kept; copies: + +
T2 sequence (looked up) 1: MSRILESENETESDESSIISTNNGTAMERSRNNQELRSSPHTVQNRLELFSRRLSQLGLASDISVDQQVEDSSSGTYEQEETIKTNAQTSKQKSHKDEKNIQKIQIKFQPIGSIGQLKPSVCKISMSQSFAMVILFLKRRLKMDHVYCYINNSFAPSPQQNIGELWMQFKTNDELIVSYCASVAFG
T2 sequence (looked up) 2: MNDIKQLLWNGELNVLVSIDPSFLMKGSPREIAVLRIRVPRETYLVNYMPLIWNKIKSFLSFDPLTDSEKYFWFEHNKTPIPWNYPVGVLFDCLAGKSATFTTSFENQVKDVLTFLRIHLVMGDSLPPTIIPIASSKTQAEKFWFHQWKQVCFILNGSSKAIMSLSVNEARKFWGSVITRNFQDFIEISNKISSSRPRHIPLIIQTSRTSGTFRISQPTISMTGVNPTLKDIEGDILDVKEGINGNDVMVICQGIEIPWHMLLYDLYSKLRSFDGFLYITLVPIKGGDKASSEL
T2 sequence (looked up) 3: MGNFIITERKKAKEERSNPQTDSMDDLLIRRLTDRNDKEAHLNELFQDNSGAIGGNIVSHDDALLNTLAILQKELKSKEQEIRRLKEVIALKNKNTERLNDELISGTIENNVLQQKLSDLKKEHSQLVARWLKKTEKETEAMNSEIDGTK

[3] = target: T1, Atg12~Atg5-Atg16-mCherry complex; assay: microscopy-based competition assay on beads; beads with GST-prApe1 propeptide (10 µM) and Atg19 (20 µM), Atg12~Atg5-Atg16-mCherry 5 µM; then GFP-Atg8 5 µM (1x) and 50 µM (10x) (Figure 3G)
GST-prApe1(1–41) + Atg19 = target: B2; assay: as above

B1: GST-prApe1(1–45) + Atg19 (complex, S. cerevisiae)
chain 1: MEEQREILEQLKKTLQMLTVEPSKNNQIANEEKEKKENENSWCIL
chain 2: MNNSKTNQQMNTSMGYPLTVYDECNKFQLIVPTLDANIMLWCIGQLSLLNDSNGCKHLFWQPNDKSNVRILLNNYDYGHLFKYLQCQRKCSVYIGEGTLKKYNLTISTSFDNFLDLTPSEEKESLCREDAHEDPVSPKAGSEEEISPNSTSNVVVSRECLDNFMKQLLKLEESLNKLELEQKVTNKEPNHRISGTIDIPEDRSELVNFFTELKTVKQLEDVFQRYHDYERLSQECDSKTEIASDHSKKETKIEVEPPNERSLQITMNQRDNSLYFQLFNNTNSVLAGNCKLKFTDAGDKPTTQIIDMGPHEIGIKEYKEYRYFPYALDLEAGSTIEIENQYGEVIFLGKYGSSPMINLRPPSRLSAESLQASQEPFYSFQIDTLPELDDSSIISTSISLSYDGDDNEKALTWEEL
notes: prApe1, S. cerevisiae, propeptide; Atg19, S. cerevisiae; formed beforehand on the beads; Atg19 as m17; source: purified proteins from E. coli, assembled on glutathione Sepharose beads and washed; not shown: GST, N-terminal, kept
B1: binds [1]; binds [2].

B2: binds [3].

B3: GFP-Atg8∆R117 (natural protein, S. cerevisiae, UniProt P38182 1-116, looked up)
chain: MKSTFKSEYPFEKRKAESERIADRFKNRIPVICEKAEKSDIPEIDKRKYLVPADLTVGQFVYVIRKRIMLPPEKAIFIFVNDTLPPTAALMSAIYQEHKDKDGFLYVTYSGENTFG
notes: Atg8, S. cerevisiae, without its last residue R117; also called meGFP-Atg8∆R117; 6xHis-meGFP-Atg8∆R117; source: E. coli Rosetta pLysS, purified; not shown: meGFP, N-terminal, kept
B3: binds (GST-prApe1(1–41) + Atg19).
